Source: patent US20060008846A1 (RESEARCH DEVELOPMENT FOUNDATION, published 2006)
Substitutions are numbered along the chain they refer to. Names may count otherwise. One block for each binder: values may come before it.

Assays:
[1] = target: T1, mouse ActRII transfected into 293T cells (mouse, UniProt P27038 20-513); test: ActRII binding, 293T cells transfected with mouse ActRII
T1 construct: whole, on cells
Method: After the incubation cells were washed three times with HDB buffer and lysed with 1% SDS solution. Radioactivity in the lysate was determined using a gamma counter.
Therefore, the inventors contemplate engineering a series of activin-A chimeras, such as activin-A/C chimeras, preferably having a peptide tag such a FLAG tag, in each of […] in the wrist loop and helix (such as A/C 46-53, 54-63, 64-69, 70-78) are replaced. Additionally, a chimera was generated in which the entire wrist region (A/C 46-78) was changed from activin-A to activin-C or some other analogous TGF-β member. In one example, the chimeras were assessed for ActRII binding, activin bioactivity as well as antagonistic properties. […] Maximum activity of A/C 64-69 and 70-78, however, was reduced down to about 20-50% and 60-90%, respectively, when compared to wt activin. […] Additionally, A/C 46-78 decreased the basal and activin induced FSH release from cultured rat anterior pituitary cells in a concentration dependent manner. […] The activin antagonist A/C 46-78 may be useful for the study and modulation of activin dependent processes.

[2] = target: ActRII (type II activin receptor) transfected into 293T cells (UniProt P27038); test: cell-based or functional assay
[3] = target: type II activin receptors in 293T cells; test: cell-based or functional assay
[4] = target: T2, ALK4 (activin type I receptor) (UniProt P36896 24-505, limits assumed); test: cell-based or functional assay
T2 sequence (looked up): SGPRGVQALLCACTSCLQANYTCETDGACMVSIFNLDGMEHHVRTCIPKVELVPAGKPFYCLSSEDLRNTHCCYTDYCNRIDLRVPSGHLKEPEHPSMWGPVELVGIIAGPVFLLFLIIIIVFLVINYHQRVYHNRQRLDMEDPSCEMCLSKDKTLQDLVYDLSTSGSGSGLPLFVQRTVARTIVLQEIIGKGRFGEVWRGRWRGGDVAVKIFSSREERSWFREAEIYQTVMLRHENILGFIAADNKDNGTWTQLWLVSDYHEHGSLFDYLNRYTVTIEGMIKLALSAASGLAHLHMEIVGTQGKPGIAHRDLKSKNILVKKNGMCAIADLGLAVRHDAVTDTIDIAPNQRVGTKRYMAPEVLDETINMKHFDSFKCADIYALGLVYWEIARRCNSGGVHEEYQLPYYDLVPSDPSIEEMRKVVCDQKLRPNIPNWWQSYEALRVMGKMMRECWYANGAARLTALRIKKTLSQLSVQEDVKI

[5] = target: T2, ALK4 (activin type I receptor); test: cell-based or functional assay; remark: listed apart in the source
[6] = target: T3, ActRII and ALK4 co-transfected into 293T cells (UniProt P27038 20-513; P36896 24-505); test: competition binding, 125I-activin on 293T cells transfected with ActRII and ALK4
T3 construct: whole, on cells; Both receptors on the same cells; also called cells transfected with ActRII and ALK4; receptor complex

[7] = target: activin receptors of non-transfected 293T cells; test: competition binding, 125I-activin on non-transfected 293T cells
[8] = target: T2, ALK4 (activin type I receptor); test: DSS crosslinking of 125I-M108A to 293T cells transfected with ActRII-myc and ALK4, immunoprecipitation, SDS-PAGE, autoradiography
Method: Cells were incubated with labeled activin or labeled M108A as indicated, subjected to covalent crosslinking with dissucinylsuberate (DSS), solubilized in lysis buffer, immunoprecipitated using an antibody against myc or ALK4 and then immunoprecipitated proteins were resolved by SDS-PAGE and visualized by autoradiography.
Approximately 24 h later, cells were transfected with 2 μg DNA per well with the indicated constructs (the ratio of ActRII:ALK4 was 2:1 and total DNA was kept constant using pcDNA3.0). […] Cells were washed in HDB, resuspended at 0.5 mM disuccinylsuberate (DSS) in HDB and incubated 30 min on ice. Crosslinking reactions were quenched with TBS (50 mM Tris-HCl pH 7.5, 150 mM NaCl) and cells were solubilized in lysis buffer (TBS containing 1% NP-40, 0.5% deoxycholate and 2 mM EDTA) and subjected to immunopreciptation using anti-myc or anti-ALK4 antibodies as indicated. Immune complexes were analyzed by SDS-PAGE and autoradiography.

T1 sequence (P27038 20-513): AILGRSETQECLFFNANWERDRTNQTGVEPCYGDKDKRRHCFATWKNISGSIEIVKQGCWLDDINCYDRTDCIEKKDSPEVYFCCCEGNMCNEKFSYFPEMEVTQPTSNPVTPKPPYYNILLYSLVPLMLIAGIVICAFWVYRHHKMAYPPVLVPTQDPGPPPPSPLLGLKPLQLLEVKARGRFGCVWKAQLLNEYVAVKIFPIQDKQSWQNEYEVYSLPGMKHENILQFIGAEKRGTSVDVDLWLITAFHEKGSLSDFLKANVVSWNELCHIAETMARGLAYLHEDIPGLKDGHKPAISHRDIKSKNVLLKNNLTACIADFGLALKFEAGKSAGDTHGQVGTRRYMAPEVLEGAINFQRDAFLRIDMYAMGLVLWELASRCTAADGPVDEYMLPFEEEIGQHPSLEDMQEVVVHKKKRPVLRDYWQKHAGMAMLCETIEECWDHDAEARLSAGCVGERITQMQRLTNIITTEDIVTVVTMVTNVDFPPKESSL
ActRII (type II activin receptor) transfected into 293T cells, sequence (P27038 20-513): as above
T3 sequence (P27038 20-513, one chain of several): as the sequence (P27038 20-513) above

B4: wild type activin-A (ligand, human, UniProt P08476 311-426, looked up)
chain: GLECDGKVNICCKKQFFVSFKDIGWNDWIIAPSGYHANYCEGECPSHIAGTSGSSLSFHSTVINHYRMRGHSPFANLKSCCVPTKLRPMSMLYYDDGQNIIKKDIQNMIVEECGCS
notes: mature; As tracer it was radioiodinated by the chloramine T method; also called WT activin-A; wt activin-A
% Activin Activity (A3-luciferase assay in 293T cells) [4]: 100 % of wild type activin-A | EC50 of activity in the A3 Lux reporter assay in 293T cells [5]: 200 pM | fold higher affinity than in cells transfected with ActRII alone [6]: 2 fold | apparent affinity [7]: 60 to 80 pM | fold higher affinity than in cells transfected with ActRII alone [7]: 2 fold | EC50 [1]: 150 pM

B7: activin-A/C chimera A/C 64-69 (ligand, UniProt P08476 311-373, looked up)
chain: B4 chain with H65L, Y66L, R67K, M68A, R69N
notes: range 1-63 of the mature chain;range 64-69 of the mature chain;range 70 to C-terminus of the mature chain
binding result [1]: binds

B8: activin-A (M108A) (ligand, human, UniProt P08476 311-426, looked up)
chain: B4 chain with M108A
notes: mature; Radioiodinated by the chloramine T method for the crosslinking study; also called M108A activin-A; M108A mutant
% Activin Activity (A3-luciferase assay in 293T cells) [4]: 8 % of wild type activin-A | binding result [8]: no binding | affinity [7]: 370 pM

B10: activin-A I63P (ligand, human, UniProt P08476 311-426, looked up)
chain: B4 chain with I63P
% Activin Activity (A3-luciferase assay in 293T cells) [4]: 19 % of wild type activin-A

B12: activin-A/C chimera A/C 70-78 (ligand, UniProt P08476 311-379, looked up)
chain: B4 chain with G70T, H71A, S72A, P73G, F74T, A75T, N76G, L77G, K78G
notes: range 1-69 of the mature chain;range 70-78 of the mature chain;range 79 to C-terminus of the mature chain
binding result [1]: binds

B14: activin-A I105E (ligand, human, UniProt P08476 311-426, looked up)
chain: B4 chain with I105E
% Activin Activity (A3-luciferase assay in 293T cells) [4]: 13 % of wild type activin-A

Continued, values first:

binding result [1]: binds
B1: activin-A/C chimera A/C 46-78 (ligand, UniProt P08476 311-355, looked up)
chain: GLECDGKVNICCKKQFFVSFKDIGWNDWIIAPSGYHANYCEGECPLHIAGMPGIAASFHTAVLNLLKANTAAGTTGGGSCCVPTKLRPMSMLYYDDGQNIIKKDIQNMIVEECGCS
notes: range 1-45 of the mature chain;range 46-78 of the mature chain;range 79 to C-terminus of the mature chain; also called A/C 46-78 chimera

% Activin Activity (A3-luciferase assay in 293T cells) (% of wild type activin-A) [2]: 18
B2: activin-A K102E (ligand, human, UniProt P08476 311-426, looked up)
chain: B4 chain with K102E

activin-A (100 pM) induced luciferase response in 293T cells with increasing amounts of M108A (fold induction) [3]: 23 | myostatin (500 pM) induced luciferase response in 293T cells with increasing doses of M108A (fold induction) [3]: 26
B3: activin-A (M108A), P08476 311-426 (ligand, human, UniProt P08476 311-426, looked up)
chain: B4 chain with M108A

binding result [1]: binds
B5: activin-A/C chimera A/C 54-63 (ligand, UniProt P08476 311-363, looked up)
chain: B4 chain with S54I, S55A, L56A, S60T, T61A, I63L
notes: range 1-53 of the mature chain;range 54-63 of the mature chain;range 64 to C-terminus of the mature chain

% Activin Activity (A3-luciferase assay in 293T cells) [4]: 3 % of wild type activin-A
B6: activin-A M91E (ligand, human, UniProt P08476 311-426, looked up)
chain: B4 chain with M91E

binding result [1]: binds
B9: activin-A/C chimera A/C 46-53 (ligand, UniProt P08476 311-355, looked up)
chain: B4 chain with S46L, T51M, S52P
notes: range 1-45 of the mature chain;range 46-53 of the mature chain;range 54 to C-terminus of the mature chain

% Activin Activity (A3-luciferase assay in 293T cells) [4]: 3 % of wild type activin-A
B11: activin-A M108E (ligand, human, UniProt P08476 311-426, looked up)
chain: B4 chain with M108E

% Activin Activity (A3-luciferase assay in 293T cells) [4]: 17 % of wild type activin-A
B13: activin-A S60P (ligand, human, UniProt P08476 311-426, looked up)
chain: B4 chain with S60P
